Blank lines part the entries; values can stand above or below the binder they belong to.
Legend:
[1] = target: endophilin SH3 (SH3G2_HUMAN), Q99962; experiment: SPOT array
[2] = target: T1, amphyphisin SH3 (AMPH_HUMAN), P49418; experiment: SPOT array
T1 chain: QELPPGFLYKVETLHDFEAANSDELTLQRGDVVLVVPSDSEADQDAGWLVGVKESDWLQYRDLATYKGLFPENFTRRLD

B1: Q16348 18-32 (peptide)
chain: IEEVPPRPPSPPKK
- normalised SPOT signal, Boehringer light units (BLU); mean over the file's lines of this peptide [1]: 4240
- normalised SPOT signal, Boehringer light units (BLU); mean over the file's lines of this peptide [2]: 225

B2: Q9NZR2 3964-3977 (peptide)
chain: ISPEFKRPRDIAVD
- normalised SPOT signal, Boehringer light units (BLU); mean over the file's lines of this peptide [1]: 14.9
- normalised SPOT signal, Boehringer light units (BLU); mean over the file's lines of this peptide [2]: 30.4

B4: Q9P2Y4 181-194 (peptide)
chain: HLHILHRPWKSGLS
- normalised SPOT signal, Boehringer light units (BLU); mean over the file's lines of this peptide [1]: 28.3
- normalised SPOT signal, Boehringer light units (BLU); mean over the file's lines of this peptide [2]: 217

B5: Q9NR83 285-299 (peptide)
chain: ALPSPLRPPAPPLP
- normalised SPOT signal, Boehringer light units (BLU); mean over the file's lines of this peptide [1]: 1950
- normalised SPOT signal, Boehringer light units (BLU); mean over the file's lines of this peptide [2]: 299

B6: O15381 730-743 (peptide)
chain: IDPAILRPGRLDKT
- normalised SPOT signal, Boehringer light units (BLU); mean over the file's lines of this peptide [1]: 225
- normalised SPOT signal, Boehringer light units (BLU); mean over the file's lines of this peptide [2]: 317

B9: O15069 1001-1014 (peptide)
chain: IAEALSRPGREASL
- normalised SPOT signal, Boehringer light units (BLU); mean over the file's lines of this peptide [1]: 142
- normalised SPOT signal, Boehringer light units (BLU); mean over the file's lines of this peptide [2]: 932

B10: Q9H7P8 659-673 (peptide)
chain: HLSSPARPPDNLSP
- normalised SPOT signal, Boehringer light units (BLU); mean over the file's lines of this peptide [1]: 76.9
- normalised SPOT signal, Boehringer light units (BLU); mean over the file's lines of this peptide [2]: 95.5

B11: Q96FM3 493-506 (peptide)
chain: HLWQPKRPAVPKKA
- normalised SPOT signal, Boehringer light units (BLU); mean over the file's lines of this peptide [1]: 816
- normalised SPOT signal, Boehringer light units (BLU); mean over the file's lines of this peptide [2]: 17.3

B12: Q9Y6X8 414-427 (peptide)
chain: AAPEPKRPHIAQVP
- normalised SPOT signal, Boehringer light units (BLU); mean over the file's lines of this peptide [1]: 108
- normalised SPOT signal, Boehringer light units (BLU); mean over the file's lines of this peptide [2]: 7.5

B16: Q9H4G7 129-142 (peptide)
chain: ISQKIKRPANSGEL
- normalised SPOT signal, Boehringer light units (BLU); mean over the file's lines of this peptide [1]: 24.2
- normalised SPOT signal, Boehringer light units (BLU); mean over the file's lines of this peptide [2]: 45.6

B17: Q8WWE0 14-27 (peptide)
chain: HRSHLRRPAAPPSP
- normalised SPOT signal, Boehringer light units (BLU); mean over the file's lines of this peptide [1]: 55.2
- normalised SPOT signal, Boehringer light units (BLU); mean over the file's lines of this peptide [2]: 58

B18: Q9H6N9 66-79 (peptide)
chain: HTAEFRRPMATGDT
- normalised SPOT signal, Boehringer light units (BLU); mean over the file's lines of this peptide [1]: 18.7
- normalised SPOT signal, Boehringer light units (BLU); mean over the file's lines of this peptide [2]: 45.7

B19: Q9H5T1 190-203 (peptide)
chain: HSFLINRPGKVKYM
- normalised SPOT signal, Boehringer light units (BLU); mean over the file's lines of this peptide [1]: 117
- normalised SPOT signal, Boehringer light units (BLU); mean over the file's lines of this peptide [2]: 202

B20: Q9Y4V7 156-169 (peptide)
chain: HYLVPVRPRRQIVY
- normalised SPOT signal, Boehringer light units (BLU); mean over the file's lines of this peptide [1]: 3150
- normalised SPOT signal, Boehringer light units (BLU); mean over the file's lines of this peptide [2]: 5140

B22: Q9Y6N1 67-80 (peptide)
chain: ALQPPRRPKSSNPF
- normalised SPOT signal, Boehringer light units (BLU); mean over the file's lines of this peptide [1]: 22500
- normalised SPOT signal, Boehringer light units (BLU); mean over the file's lines of this peptide [2]: 140

B24: Q9BXU7 768-781 (peptide)
chain: HTKNLLRPTKLNLQ
- normalised SPOT signal, Boehringer light units (BLU); mean over the file's lines of this peptide [1]: 61.7
- normalised SPOT signal, Boehringer light units (BLU); mean over the file's lines of this peptide [2]: 110

B25: Q96IW6 580-593 (peptide)
chain: IDPALRRPGRFDRE
- normalised SPOT signal, Boehringer light units (BLU); mean over the file's lines of this peptide [1]: 108
- normalised SPOT signal, Boehringer light units (BLU); mean over the file's lines of this peptide [2]: 314

B27: P10163 94-108 (peptide)
chain: HPGKPERPPPQGGN
- normalised SPOT signal, Boehringer light units (BLU); mean over the file's lines of this peptide [1]: 794
- normalised SPOT signal, Boehringer light units (BLU); mean over the file's lines of this peptide [2]: 57.4

B28: Q9H2L5 59-72 (peptide)
chain: IAWGLRRPIRLQMQ
- normalised SPOT signal, Boehringer light units (BLU); mean over the file's lines of this peptide [1]: 846
- normalised SPOT signal, Boehringer light units (BLU); mean over the file's lines of this peptide [2]: 489

B29: Q9BXK1 213-226 (peptide)
chain: HPDLLRRPGARSTS
- normalised SPOT signal, Boehringer light units (BLU); mean over the file's lines of this peptide [1]: 0.2
- normalised SPOT signal, Boehringer light units (BLU); mean over the file's lines of this peptide [2]: 29.9

B31: Q9HBK7 243-256 (peptide)
chain: HLLLFHRPLRASGA
- normalised SPOT signal, Boehringer light units (BLU); mean over the file's lines of this peptide [1]: 33.5
- normalised SPOT signal, Boehringer light units (BLU); mean over the file's lines of this peptide [2]: 1690

B32: O15488 104-117 (peptide)
chain: HLAFLKRPELGLTL
- normalised SPOT signal, Boehringer light units (BLU); mean over the file's lines of this peptide [1]: 28.8
- normalised SPOT signal, Boehringer light units (BLU); mean over the file's lines of this peptide [2]: 36.5

B33: Q9P2Q2 580-594 (peptide)
chain: HKGLPPRPPSHNRP
- normalised SPOT signal, Boehringer light units (BLU); mean over the file's lines of this peptide [1]: 5020
- normalised SPOT signal, Boehringer light units (BLU); mean over the file's lines of this peptide [2]: 326

B34: O14791 6-19 (peptide)
chain: HTVELRRPSSDMEG
- normalised SPOT signal, Boehringer light units (BLU); mean over the file's lines of this peptide [1]: 27.4
- normalised SPOT signal, Boehringer light units (BLU); mean over the file's lines of this peptide [2]: 50.5

B35: Q9BZQ1 159-172 (peptide)
chain: ISHLPSRPVKPNII
- normalised SPOT signal, Boehringer light units (BLU); mean over the file's lines of this peptide [1]: 120
- normalised SPOT signal, Boehringer light units (BLU); mean over the file's lines of this peptide [2]: 97.4

B37: P17812 526-539 (peptide)
chain: HPEFLSRPIKPSPP
- normalised SPOT signal, Boehringer light units (BLU); mean over the file's lines of this peptide [1]: 45.5
- normalised SPOT signal, Boehringer light units (BLU); mean over the file's lines of this peptide [2]: 75.1

B38: Q9HAP0 257-270 (peptide)
chain: IDPAILRPGRPDQL
- normalised SPOT signal, Boehringer light units (BLU); mean over the file's lines of this peptide [1]: 169
- normalised SPOT signal, Boehringer light units (BLU); mean over the file's lines of this peptide [2]: 220

B39: Q9NWA6 173-186 (peptide)
chain: HQEKPERPLRGGKS
- normalised SPOT signal, Boehringer light units (BLU); mean over the file's lines of this peptide [1]: 2060
- normalised SPOT signal, Boehringer light units (BLU); mean over the file's lines of this peptide [2]: 9960

B40: P18031 304-318 (peptide)
chain: HIPPPPRPPKRILE
- normalised SPOT signal, Boehringer light units (BLU); mean over the file's lines of this peptide [1]: 4140
- normalised SPOT signal, Boehringer light units (BLU); mean over the file's lines of this peptide [2]: 3540

Now from value to binder:

- normalised SPOT signal, Boehringer light units (BLU); mean over the file's lines of this peptide [1]: 87
- normalised SPOT signal, Boehringer light units (BLU); mean over the file's lines of this peptide [2]: 304
B3: P55072 629-642 (peptide)
chain: IDPAILRPGRLDQL

- normalised SPOT signal, Boehringer light units (BLU); mean over the file's lines of this peptide [1]: 153
- normalised SPOT signal, Boehringer light units (BLU); mean over the file's lines of this peptide [2]: 34.4
B7: P33551 65-78 (peptide)
chain: HILLFRRPLPKKPK

- normalised SPOT signal, Boehringer light units (BLU); mean over the file's lines of this peptide [1]: 0
- normalised SPOT signal, Boehringer light units (BLU); mean over the file's lines of this peptide [2]: 370
B8: P46459 379-392 (peptide)
chain: IDEALLRPGRLEVK

- normalised SPOT signal, Boehringer light units (BLU); mean over the file's lines of this peptide [1]: 3470
- normalised SPOT signal, Boehringer light units (BLU); mean over the file's lines of this peptide [2]: 553
B13: O43763 237-251 (peptide)
chain: ALPRPLRPPLPPDP

- normalised SPOT signal, Boehringer light units (BLU); mean over the file's lines of this peptide [1]: 49.6
- normalised SPOT signal, Boehringer light units (BLU); mean over the file's lines of this peptide [2]: 49.7
B14: BAC05287 132-146 (peptide)
chain: HVQSPEKPPTSPRE

- normalised SPOT signal, Boehringer light units (BLU); mean over the file's lines of this peptide [1]: 224
- normalised SPOT signal, Boehringer light units (BLU); mean over the file's lines of this peptide [2]: 2890
B15: P28749 775-788 (peptide)
chain: HSTGINRPKRTGSL

- normalised SPOT signal, Boehringer light units (BLU); mean over the file's lines of this peptide [1]: 40
- normalised SPOT signal, Boehringer light units (BLU); mean over the file's lines of this peptide [2]: 12.1
B21: P33552 65-78 (peptide)
chain: HILLFRRPLPKDQQ

- normalised SPOT signal, Boehringer light units (BLU); mean over the file's lines of this peptide [1]: 1970
- normalised SPOT signal, Boehringer light units (BLU); mean over the file's lines of this peptide [2]: 125
B23: P54368 201-214 (peptide)
chain: HPLVPKRPDASFMA

- normalised SPOT signal, Boehringer light units (BLU); mean over the file's lines of this peptide [1]: 1790
- normalised SPOT signal, Boehringer light units (BLU); mean over the file's lines of this peptide [2]: 1070
B26: O60281 1125-1138 (peptide)
chain: HKAHLIRPRRLTPG

- normalised SPOT signal, Boehringer light units (BLU); mean over the file's lines of this peptide [1]: 171
- normalised SPOT signal, Boehringer light units (BLU); mean over the file's lines of this peptide [2]: 4870
B30: O75354 116-129 (peptide)
chain: HVFQFTRPPRETPT

- normalised SPOT signal, Boehringer light units (BLU); mean over the file's lines of this peptide [1]: 0
- normalised SPOT signal, Boehringer light units (BLU); mean over the file's lines of this peptide [2]: 619
B36: O43933 989-1002 (peptide)
chain: IDPALLRPGRLDKS

- normalised SPOT signal, Boehringer light units (BLU); mean over the file's lines of this peptide [1]: 97.8
- normalised SPOT signal, Boehringer light units (BLU); mean over the file's lines of this peptide [2]: 2410
B41: P42679 203-216 (peptide)
chain: ISTKLVRPKRKHGT

- normalised SPOT signal, Boehringer light units (BLU); mean over the file's lines of this peptide [1]: 5490
- normalised SPOT signal, Boehringer light units (BLU); mean over the file's lines of this peptide [2]: 7780
B42: O75163 275-288 (peptide)
chain: ALPRPIRPHRNISA
